Source: the supplement of paper PMC7125110
± gives the standard error. Variants at the floor of the assay were thinned out.

B1: glmS ribozyme (parent)
chain: AUAAAAGCGCCAGAACUACAGAAAUGUAGUUGACGAGGAGGAGGUUUAUCGAAUUUUCGGCGGAUGCCUCCAAA

Tests used:
Conditions in all cases: with glucosamine-6-phosphate
glucosamine-6-phosphate [1] = variants of: B1; test: self-cleavage kobs at 640 uM GlcN6P; higher = faster cleavage; RNA array
Summary of the method: (§1)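 Weighted Michaelis–Menten fits across concentrations supplied kcat and KM, based on kobs from one- or two-exponential decay fits to normalised per-tile medians. The data came from barcoded ribozyme variants transcribed in situ by E. coli RNA polymerase on sequenced MiSeq chips and tracked at 37 °C by a hybridised Cy3 probe. Glucosamine-6-phosphate (40 μM to 10 mM) in HEPES/KCl/Mg(OAc)2 buffer was flowed in.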

glucosamine-6-phosphate [2] = variants of: B1; test: self-cleavage kobs at 2500 uM GlcN6P; higher = faster cleavage; RNA array
Summary of the method: as §1

glucosamine-6-phosphate [3] = variants of: B1; test: self-cleavage kobs at 10000 uM GlcN6P; higher = faster cleavage; RNA array
Summary of the method: as §1

| Variant | self-cleavage kobs at 640 uM GlcN6P (glucosamine-6-phosphate [1]) | self-cleavage kobs at 2500 uM GlcN6P (glucosamine-6-phosphate [2]) | self-cleavage kobs at 10000 uM GlcN6P (glucosamine-6-phosphate [3]) |
| --- | --- | --- | --- |
| A12G G66C C68A | 6.5e-05 ± 2.5e-05 s⁻¹ |  |  |
| C11U G60A | < 1e-05 s⁻¹ | < 1e-05 s⁻¹ | < 1e-05 s⁻¹ |
| C16U U46A A52U | < 1e-05 s⁻¹ |  |  |
| C11G C16A C50G U65G | 0.000148 ± 5.2e-05 s⁻¹ |  |  |
| G13A C50U G62A | < 1e-05 s⁻¹ |  |  |
| A33G G40U C58A C67A | < 1e-05 s⁻¹ | < 1e-05 s⁻¹ |  |
| A12G G63A A64C | < 1e-05 s⁻¹ |  |  |
| C11A C16A C50G | 0.000146 ± 4.5e-05 s⁻¹ | 8e-05 ± 2.7e-05 s⁻¹ |  |
| G29C G43U U57G | < 1e-05 s⁻¹ |  |  |
| C11G A12U G38C A42U | < 1e-05 s⁻¹ | < 1e-05 s⁻¹ |  |
| A15C G29C G60U | < 1e-05 s⁻¹ | < 1e-05 s⁻¹ | < 1e-05 s⁻¹ |
| G13U U56C G62U | < 1e-05 s⁻¹ | < 1e-05 s⁻¹ | < 1e-05 s⁻¹ |
| A14G G29C A33C | < 1e-05 s⁻¹ |  |  |
| U30G U56A C68G | 5.24e-05 ± 2.3e-05 s⁻¹ |  |  |
| C16U G60U C61G | < 1e-05 s⁻¹ |  |  |
| G32C A42U A53G U57A A64G | < 1e-05 s⁻¹ | < 1e-05 s⁻¹ |  |
| G13A A42C G51C C61A | < 1e-05 s⁻¹ | < 1e-05 s⁻¹ |  |
| A15C A48U U49G G62U | < 1e-05 s⁻¹ |  |  |

| Variant | self-cleavage kobs at 640 uM GlcN6P (glucosamine-6-phosphate [1]) | self-cleavage kobs at 2500 uM GlcN6P (glucosamine-6-phosphate [2]) | self-cleavage kobs at 10000 uM GlcN6P (glucosamine-6-phosphate [3]) |
| --- | --- | --- | --- |
| G29A U30G A52G | 7.23e-05 ± 1.9e-05 s⁻¹ | 0.000399 ± 9.4e-05 s⁻¹ |  |
| A14C A15G U69A | 9.09e-05 ± 2.4e-05 s⁻¹ | 0.000115 ± 2.7e-05 s⁻¹ |  |
| G13U G29U A39G | 0.000115 ± 2.8e-05 s⁻¹ | 7.21e-05 ± 2.3e-05 s⁻¹ |  |
| A14G C34U A52C C68U C70U | 8.57e-05 ± 4.2e-05 s⁻¹ |  |  |
| A14C U56G U57A C71A | 8.95e-05 ± 2.3e-05 s⁻¹ | 5.04e-05 ± 2e-05 s⁻¹ |  |
| C11U U30G U31C | 9.28e-05 ± 2.1e-05 s⁻¹ |  |  |
| G26U U31C U47A A64G | 0.000213 ± 6.9e-05 s⁻¹ |  |  |
| G13A A15U G35U G40C | < 1e-05 s⁻¹ |  |  |
| A15U A33G A64G C67A C70A C71U | 9.67e-05 ± 3.1e-05 s⁻¹ |  |  |
| A14G G32C G63C G66U U69G | < 1e-05 s⁻¹ | < 1e-05 s⁻¹ |  |
| G29C U65G C67G | 0.000341 ± 0.00016 s⁻¹ |  |  |
| A14G G43U G63U C70A | < 1e-05 s⁻¹ | < 1e-05 s⁻¹ |  |
| C11A U54A U55G G63U U65G | < 1e-05 s⁻¹ |  |  |
| C11U U55G C70A | 8.31e-05 ± 3.3e-05 s⁻¹ | 0.000101 ± 2.5e-05 s⁻¹ |  |
| U30A U31A G66A | 0.000765 ± 0.00037 s⁻¹ |  |  |
| G13A G37A G66C | < 1e-05 s⁻¹ |  |  |
| G29A C34U G44C A53U C68U | < 1e-05 s⁻¹ |  |  |
